Measured values as given in publication PMC10959496 (European journal of medicinal chemistry, 2023).

What was measured:
EphA4 [1] = biological target: T1, EphA4 (Homo sapiens, UniProt P54764); test: ELISA measuring EphA4 activation; format: cell-based; details: HEK-EphA4 cells, ratio of IC50 values
[2] = mouse, ip
EphA4 [3] = biological target: T1, EphA4; details: cited from earlier work

T1 sequence (P54764 20-986, species assumed): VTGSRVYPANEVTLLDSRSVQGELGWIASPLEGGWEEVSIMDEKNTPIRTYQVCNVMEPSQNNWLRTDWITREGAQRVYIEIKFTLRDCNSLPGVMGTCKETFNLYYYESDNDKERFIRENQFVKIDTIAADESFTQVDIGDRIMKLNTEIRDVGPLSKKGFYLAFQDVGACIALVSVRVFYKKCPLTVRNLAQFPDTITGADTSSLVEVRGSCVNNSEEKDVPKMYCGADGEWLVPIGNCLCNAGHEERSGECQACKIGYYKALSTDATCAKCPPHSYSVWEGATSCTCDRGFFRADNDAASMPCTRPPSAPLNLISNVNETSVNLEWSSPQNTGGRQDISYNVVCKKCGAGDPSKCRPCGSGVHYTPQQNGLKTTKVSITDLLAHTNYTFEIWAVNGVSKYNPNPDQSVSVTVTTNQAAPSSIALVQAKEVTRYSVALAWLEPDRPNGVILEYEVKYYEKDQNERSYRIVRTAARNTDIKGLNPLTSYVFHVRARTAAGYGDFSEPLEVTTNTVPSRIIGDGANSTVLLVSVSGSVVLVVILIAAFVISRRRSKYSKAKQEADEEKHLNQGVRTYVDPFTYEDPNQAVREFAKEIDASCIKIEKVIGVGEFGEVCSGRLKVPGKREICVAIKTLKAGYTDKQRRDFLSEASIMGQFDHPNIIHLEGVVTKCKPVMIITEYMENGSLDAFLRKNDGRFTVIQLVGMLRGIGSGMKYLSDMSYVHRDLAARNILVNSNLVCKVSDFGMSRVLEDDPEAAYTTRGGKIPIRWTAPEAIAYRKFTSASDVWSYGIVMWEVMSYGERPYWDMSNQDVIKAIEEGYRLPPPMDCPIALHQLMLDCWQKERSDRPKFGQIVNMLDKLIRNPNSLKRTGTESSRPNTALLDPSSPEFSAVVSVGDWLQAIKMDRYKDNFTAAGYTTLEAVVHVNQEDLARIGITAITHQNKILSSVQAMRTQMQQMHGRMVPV

| Substance | Potency in cells lower than that of APY-d3 (EphA4 [1]) | Blood concentration at 20 hours after injection ([2]; in vivo, 0.8 mg per mouse, 20 h) | Blood concentration at 48 hours after injection ([2]; in vivo, 0.8 mg per mouse, 48 h) [µM] | In vivo half-life after intraperitoneal injection [2] [h] | More potent than APY (EphA4 [3]) [fold] |
| --- | --- | --- | --- | --- | --- |
| APY-d3-PEG4: APY-d3 conjugated to 30 kDa metoxy-PEG-azide through 3 amino-hexanoic acid groups and propargyl-glycine by click chemistry | ~ 4 fold | ~ 3 μM | 0.4 | > 10 | – |
| APYCVYRβASWSC-NH2 (disulfide) [APY-d2] | – | – | – | – | 50 |
